Patent US20240117018A1

Assays:
Assay in all cases: cell-based or functional assay
[1] = target: HIV-1 Env of pseudovirus Q461.e2 (HIV-1)
[2] = target: HIV-1 Env of pseudovirus TRJO4551.58 (HIV-1)
[3] = target: HIV-1 Env of pseudovirus 6240_08_TA5_4622 (HIV-1)
[4] = target: HIV-1 Env of pseudovirus T250-4 (HIV-1)
[5] = target: HIV-1 Env of pseudovirus CNE30 (HIV-1)
[6] = target: HIV-1 Env of pseudovirus Ce704809221_1B3 (HIV-1)
[7] = target: HIV-1 Env of pseudovirus SC422661.8 (HIV-1)
[8] = target: HIV-1 Env of pseudovirus THRO4156.18 (HIV-1)
[9] = target: HIV-1 Env of pseudovirus PVO.4 (HIV-1)
[10] = target: HIV-1 Env of pseudovirus HIV-16845-2.22 (HIV-1)
[11] = target: HIV-1 Env of pseudovirus BF1266.431a (HIV-1)
[12] = target: HIV-1 Env of pseudovirus Ce1086_B2 (HIV-1)
[13] = target: HIV-1 Env of pseudovirus QH0692.42 (HIV-1)
[14] = target: HIV-1 Env of pseudovirus 6535.3 (HIV-1)
[15] = target: HIV-1 Env of pseudovirus Q259.d2.17 (HIV-1)
[16] = target: HIV-1 Env of pseudovirus Q23.17 (HIV-1)
[17] = target: HIV-1 Env of pseudovirus CNE5 (HIV-1)
[18] = target: HIV-1 Env of pseudovirus CNE21 (HIV-1)
[19] = target: HIV-1 Env of pseudovirus HIV-001428-2.42 (HIV-1)
[20] = target: HIV-1 Env of pseudovirus 246F C1G (HIV-1)
[21] = target: HIV-1 Env of pseudovirus CNE19 (HIV-1)
[22] = target: HIV-1 Env of pseudovirus 249M B10 (HIV-1)
[23] = target: HIV-1 Env of pseudovirus Du156.12 (HIV-1)
[24] = target: HIV-1 Env of pseudovirus 1006_11_C3_1601 (HIV-1)
[25] = target: HIV-1 Env of pseudovirus C2101.c01 (HIV-1)
[26] = target: HIV-1 Env of pseudovirus CAP45.2.00.G3 (HIV-1)
[27] = target: HIV-1 Env of pseudovirus ZM249M.PL1 (HIV-1)
[28] = target: HIV-1 Env of pseudovirus 1056_10_TA11_1826 (HIV-1)
[29] = target: HIV-1 Env of pseudovirus CAP210.2.00.E8 (HIV-1)
[30] = target: HIV-1 Env of pseudovirus Ce1172_H1 (HIV-1)
[31] = target: HIV-1 Env of pseudovirus SC05_8C11_2344 (HIV-1)
[32] = target: HIV-1 Env of pseudovirus Ce0682_E4 (HIV-1)
[33] = target: HIV-1 Env of pseudovirus 7030102001E5(Rev-) (HIV-1)
[34] = target: HIV-1 Env of pseudovirus CNE8 (HIV-1)
[35] = target: HIV-1 Env of pseudovirus 0260.v5.c36 (HIV-1)
[36] = target: HIV-1 Env of pseudovirus CNE17 (HIV-1)

**Q.** With PGDM1400 (antibody) as the substance, how does the neutralization IC50 [1] read?
**A.** The neutralization IC50 was 0.089 µg/mL.

**Q.** And the neutralization IC80 [1]?
**A.** The neutralization IC80 was 0.572 µg/mL.

**Q.** And the neutralization IC50 [2]?
**A.** Its neutralization IC50 is over 50 µg/mL.

**Q.** And the neutralization IC80 [2]?
**A.** Its neutralization IC80 is over 50 µg/mL.

**Q.** And the neutralization IC50 [3]?
**A.** Its neutralization IC50 is over 50 µg/mL.

**Q.** What about the neutralization IC80 [3] of the same substance?
**A.** The neutralization IC80 was over 50 µg/mL.

**Q.** And the neutralization IC50 [4]?
**A.** The neutralization IC50 was under 0.001 µg/mL.

**Q.** What about the neutralization IC80 [4] of the same substance?
**A.** Its neutralization IC80 is under 0.001 µg/mL.

**Q.** And the neutralization IC50 [5]?
**A.** Its neutralization IC50 is over 50 µg/mL.

**Q.** What about the neutralization IC80 [5] of the same substance?
**A.** The neutralization IC80 was over 50 µg/mL.

**Q.** What about the neutralization IC50 [6] of the same substance?
**A.** Its neutralization IC50 is 0.28 µg/mL.

**Q.** What about the neutralization IC80 [6] of the same substance?
**A.** The neutralization IC80 was 1.1 µg/mL.

**Q.** And the neutralization IC50 [7]?
**A.** The neutralization IC50 was 0.436 µg/mL.

**Q.** And the neutralization IC80 [7]?
**A.** The neutralization IC80 was 6.53 µg/mL.

**Q.** And the neutralization IC50 [8]?
**A.** Its neutralization IC50 is 0.072 µg/mL.

**Q.** And the neutralization IC80 [8]?
**A.** The neutralization IC80 was 0.348 µg/mL.

**Q.** What about the neutralization IC50 [9] of the same substance?
**A.** The neutralization IC50 was 0.484 µg/mL.

**Q.** And the neutralization IC80 [9]?
**A.** The neutralization IC80 was 6.49 µg/mL.

**Q.** What about the neutralization IC50 [10] of the same substance?
**A.** The neutralization IC50 was over 50 µg/mL.

**Q.** And the neutralization IC80 [10]?
**A.** The neutralization IC80 was over 50 µg/mL.

**Q.** What about the neutralization IC50 [11] of the same substance?
**A.** The neutralization IC50 was 0.003 µg/mL.

**Q.** What about the neutralization IC80 [11] of the same substance?
**A.** The neutralization IC80 was 0.011 µg/mL.

**Q.** And the neutralization IC50 [12]?
**A.** The neutralization IC50 was over 50 µg/mL.

**Q.** What about the neutralization IC80 [12] of the same substance?
**A.** The neutralization IC80 was over 50 µg/mL.

**Q.** What about the neutralization IC50 [13] of the same substance?
**A.** The neutralization IC50 was over 50 µg/mL.

**Q.** And the neutralization IC80 [13]?
**A.** Its neutralization IC80 is over 50 µg/mL.

**Q.** And the neutralization IC50 [14]?
**A.** Its neutralization IC50 is over 50 µg/mL.

**Q.** What about the neutralization IC80 [14] of the same substance?
**A.** Its neutralization IC80 is over 50 µg/mL.

**Q.** What about the neutralization IC50 [15] of the same substance?
**A.** Its neutralization IC50 is 0.166 µg/mL.

**Q.** What about the neutralization IC80 [15] of the same substance?
**A.** The neutralization IC80 was over 50 µg/mL.

**Q.** What about the neutralization IC50 [16] of the same substance?
**A.** Its neutralization IC50 is under 0.001 µg/mL.

**Q.** And the neutralization IC80 [16]?
**A.** The neutralization IC80 was 0.003 µg/mL.

**Q.** What about the IC50 (Titer in TZM.bl cells) [17] of the same substance?
**A.** The IC50 (Titer in TZM.bl cells) was under 0.001 µg/mL.

**Q.** And the IC80 (Titer in TZM.bl cells) [17]?
**A.** Its IC80 (Titer in TZM.bl cells) is under 0.001 µg/mL.

**Q.** And the neutralization IC50 [18]?
**A.** Its neutralization IC50 is under 0.001 µg/mL.

**Q.** What about the neutralization IC80 [18] of the same substance?
**A.** The neutralization IC80 was 0.002 µg/mL.

**Q.** And the neutralization IC50 [19]?
**A.** The neutralization IC50 was under 0.001 µg/mL.

**Q.** What about the neutralization IC80 [19] of the same substance?
**A.** Its neutralization IC80 is 0.027 µg/mL.

**Q.** And the neutralization IC50 [20]?
**A.** Its neutralization IC50 is over 50 µg/mL.

**Q.** And the neutralization IC80 [20]?
**A.** Its neutralization IC80 is over 50 µg/mL.

**Q.** And the neutralization IC50 [21]?
**A.** Its neutralization IC50 is 0.001 µg/mL.

**Q.** And the neutralization IC80 [21]?
**A.** Its neutralization IC80 is 0.007 µg/mL.

**Q.** What about the neutralization IC50 [22] of the same substance?
**A.** Its neutralization IC50 is 0.039 µg/mL.

**Q.** And the neutralization IC80 [22]?
**A.** The neutralization IC80 was 0.786 µg/mL.

**Q.** And the neutralization IC50 [23]?
**A.** Its neutralization IC50 is 0.002 µg/mL.

**Q.** And the neutralization IC80 [23]?
**A.** Its neutralization IC80 is 0.008 µg/mL.

**Q.** And the neutralization IC50 [24]?
**A.** Its neutralization IC50 is 4.32 µg/mL.

**Q.** And the neutralization IC80 [24]?
**A.** Its neutralization IC80 is over 50 µg/mL.

**Q.** And the IC50 (Titer in TZM.bl cells) [25]?
**A.** Its IC50 (Titer in TZM.bl cells) is 0.006 µg/mL.

**Q.** And the IC80 (Titer in TZM.bl cells) [25]?
**A.** Its IC80 (Titer in TZM.bl cells) is 0.021 µg/mL.

**Q.** And the neutralization IC50 [26]?
**A.** Its neutralization IC50 is under 0.001 µg/mL.

**Q.** And the neutralization IC80 [26]?
**A.** The neutralization IC80 was 0.002 µg/mL.

**Q.** What about the neutralization IC50 [27] of the same substance?
**A.** The neutralization IC50 was 0.016 µg/mL.

**Q.** And the neutralization IC80 [27]?
**A.** Its neutralization IC80 is 0.701 µg/mL.

**Q.** And the neutralization IC50 [28]?
**A.** Its neutralization IC50 is 3.26 µg/mL.

**Q.** And the neutralization IC80 [28]?
**A.** Its neutralization IC80 is 11.8 µg/mL.

**Q.** And the neutralization IC50 [29]?
**A.** The neutralization IC50 was 0.034 µg/mL.

**Q.** And the neutralization IC80 [29]?
**A.** Its neutralization IC80 is 0.514 µg/mL.

**Q.** And the neutralization IC50 [30]?
**A.** The neutralization IC50 was 0.021 µg/mL.

**Q.** What about the neutralization IC80 [30] of the same substance?
**A.** The neutralization IC80 was 0.06 µg/mL.

**Q.** And the neutralization IC50 [31]?
**A.** The neutralization IC50 was 1.26 µg/mL.

**Q.** And the neutralization IC80 [31]?
**A.** The neutralization IC80 was 3.59 µg/mL.

**Q.** And the neutralization IC50 [32]?
**A.** Its neutralization IC50 is 0.01 µg/mL.

**Q.** And the neutralization IC80 [32]?
**A.** Its neutralization IC80 is 0.043 µg/mL.

**Q.** What about the neutralization IC50 [33] of the same substance?
**A.** Its neutralization IC50 is over 50 µg/mL.

**Q.** And the neutralization IC80 [33]?
**A.** The neutralization IC80 was over 50 µg/mL.

**Q.** And the IC50 (Titer in TZM.bl cells) [34]?
**A.** Its IC50 (Titer in TZM.bl cells) is under 0.001 µg/mL.

**Q.** And the IC80 (Titer in TZM.bl cells) [34]?
**A.** Its IC80 (Titer in TZM.bl cells) is 0.01 µg/mL.

**Q.** And the neutralization IC50 [35]?
**A.** The neutralization IC50 was 0.033 µg/mL.

**Q.** And the neutralization IC80 [35]?
**A.** Its neutralization IC80 is 0.175 µg/mL.

**Q.** And the neutralization IC50 [36]?
**A.** The neutralization IC50 was 0.007 µg/mL.

**Q.** And the neutralization IC80 [36]?
**A.** Its neutralization IC80 is 0.021 µg/mL.
